From patent US20220017616A1 (published 2022)

T1: human CD112R (N81D)
T1 chain: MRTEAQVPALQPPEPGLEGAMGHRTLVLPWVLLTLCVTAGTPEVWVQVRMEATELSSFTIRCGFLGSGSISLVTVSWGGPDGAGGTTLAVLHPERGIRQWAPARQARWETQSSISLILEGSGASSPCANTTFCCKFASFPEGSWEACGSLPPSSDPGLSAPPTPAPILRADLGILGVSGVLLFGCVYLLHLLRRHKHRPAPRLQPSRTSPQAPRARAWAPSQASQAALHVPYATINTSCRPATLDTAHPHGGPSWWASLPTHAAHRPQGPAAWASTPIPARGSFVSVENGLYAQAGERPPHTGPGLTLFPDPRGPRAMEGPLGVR

T2: human TIGIT (UniProt Q495A1 22-244)
T2 chain: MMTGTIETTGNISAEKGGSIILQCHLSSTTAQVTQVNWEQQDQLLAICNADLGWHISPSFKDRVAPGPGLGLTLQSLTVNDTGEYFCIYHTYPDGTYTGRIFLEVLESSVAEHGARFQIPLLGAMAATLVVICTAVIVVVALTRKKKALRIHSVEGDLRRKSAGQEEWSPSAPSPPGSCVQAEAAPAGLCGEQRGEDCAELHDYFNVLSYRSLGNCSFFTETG


Assays:
Assay in all cases: Biacore SPR
[1] = target: T1, human CD112R (N81D)
[2] = target: 31B3.001
[3] = target: T2, human TIGIT
[4] = target: cynomolgus TIGIT
Sequence of cynomolgus TIGIT (chain, as listed by the source): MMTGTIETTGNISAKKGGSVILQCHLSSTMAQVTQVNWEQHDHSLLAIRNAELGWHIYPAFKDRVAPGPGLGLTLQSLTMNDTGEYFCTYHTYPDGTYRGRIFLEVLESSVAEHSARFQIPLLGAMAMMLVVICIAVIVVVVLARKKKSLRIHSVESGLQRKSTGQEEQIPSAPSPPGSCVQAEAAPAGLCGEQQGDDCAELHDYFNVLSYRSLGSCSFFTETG

| Binder | Kd [1] | Kd [2] | Kd [3] | Kd [4] |
| --- | --- | --- | --- | --- |
| 29E10 (antibody, V domains shown) VH: EVQLVESGGGLVQPGGSLRLSCAASGFTFRNYDMHWVRQVPGKGLEWVSDIGNSGETYYLGSVKGRFTISRENAKNSLYLQMNSLRAGDTAVYYCVREEFGYGMDVWGQGTTVTVSS VL: DIQMTQSPSSLSASVGDRVTITCRASQGIRNDLGWYQQKPGKAPKRLIYAASSLQSGVPSRFSGSGSGTEFTLTISSLQPEDFATYYCLQHNSYPLTFGGGTKVEIKR | 0.126 nM | – | – | – |
| human CD112R (receptor) TPEVWVQVRMEATELSSFTIRCGFLGSGSISLVTVSWGGPNGAGGTTLAVLHPERGIRQWAPARQARWETQSSISLILEGSGASSPCANTTFCCKFASFPEGSWEACGSLPPSSDPGLSAPPTPAPILRADLAGILGVSGVLLFGCVYLLHLLRRHKHRPAPRLQPSRTSPQAPRARAWAPSQASQAALHVPYATINTSCRPATLDTAHPHGGPSWWASLPTHAAHRPQGPAAWASTPIPARGSFVSVENGLYAQAGERPPHTGPGLTLFPDPRGPRAMEGPLGVR | – | 2.29 nM | – | – |
| 24F1 (antibody, V domains shown) VH: EVQLVESGGGLVQPGGSLRLSCAASGFTFSRDDMHWVRQATGKGLEWVAGIDNAGDTYYPGSVKGRFTISRENAKNSLYLQMNSLRAGDTAIYYCAREGQWPYGMDVWGQGTTVTVSS VL: DIQMTQSPSSLSASVGDRVTITCRASQGIRNDLGWYQQKPGKAPKRLIYSASSLQSGVSSRFSGSGSGTEFTLTISSLQPEDFATYYCLQSNSYPLTFGGGTKVEIKR | 0.0506 nM | – | – | – |
| 66H9.009 (antibody, V domains shown) VH: QVQLQESGPGLVKPSETLSLTCTVSGGSISSVYFYWNWIRQPPGKGLEWIGYIYYSGGTYYNPSLRSRVTISVDTSKNQFSLKLNSVTAADTAVYYCARGSIAAGGGYFYYNDMDVWGQGTTVTVSS VL: EIVLTQSPDFQSVTPKEKVAITCRASQSIGSSLHWYQQKPDQSPKPLIKYVSQSFSGVPSRFSGSGSGTDFTLTINSLEAEDAATYYCHQSSSLPLTFGGGTKVEIKR | – | – | 0.0523 nM | 34.7 nM |
| 58A7.003.008 (antibody, V domains shown) VH: QVQLQESGPGLVKPSETLSLTCTVSGGSISSGGYYWNWIRQPPGKGLEWIGYIYYSGSTFYNPSLKSRVTISVDTSKNQFSLKLSSVTAADTAVYYCARAPRYNWNYGWFDPWGQGTLVTVSS VL: EIVLTQSPGTLSLSPGERATLSCRASQQVSSTYLAWYQQKPGQAPRLLFYGASSRATGIPDRFSRSGSGTDFTLTISRLEPEDFAVYYCQQYDVSPWTFGQGTKVEIKR | – | – | 0.283 nM | 9.39 nM |
| 43B7.002.015 (antibody, V domains shown) VH: QVQLQESGPGLVKPSETLSLTCTVSGGSISSGGYYWSWIRQHPGKGLEWIGYIYYRGGTYYNPSLRSRVTMSVDTSKNQFSLRLSSVTAADTAVYYCARTIFGVIILDNWGQGTPVTVSS VL: DIQMTQSPSSLSASVGDRVTITCRSSQSISSYLNWYQQKPGRAPKLLIYAASSLQSGVPSRFSGSGSGTDFTLTISSLQPEDFASYYCQQSYTTPPTFGGGTKVEIKR | – | – | 0.0519 nM | 13 nM |
| 55G7.041 (antibody, V domains shown) VH: EVQLVESGGGVVQPGGSLRLSCAASGFTFSSYGMHWVRQAPGKGLEWVALIWFDESNIYYADAVKGRFTISRDNAKNTLYLQMNSLRAEDTAVYFCARGYDLLTGYYNFDFWGQGTLVTVSS VL: QAGLTQPPSVSKGLRQTATLTCTGNANNVGNRGAAWLQQHQGHPPKLLSYRNNNRPSGISERLSASRSGNTASLTITGLQPEDEADYYCSAWDSSLSAWVFGGGTKLTVLG | – | – | 0.228 nM | 25 nM |
| 24F1.001 (antibody, V domains shown) VH: EVQLVESGGGLVQPGGSLRLSCAASGFTFSRDDMHWVRQATGKGLEWVAGIDNAGETYYPGSVKGRFTISRENAKNSLYLQMNSLRAGDTAIYYCAREGQWPYGMDVWGQGTTVTVSS VL: DIQMTQSPSSLSASVGDRVTITCRASQGIRNDLGWYQQKPGKAPKRLIYSASSLQSGVSSRFSGSGSGTEFTLTISSLQPEDFATYYCLQSNSYPLTFGGGTKVEIKR | 0.0594 nM | – | – | – |
| 1E1.016 (antibody, V domains shown) VH: QVQLVQSGAEVKKPGASVKVSCKASGYTFTDYYIYWVRQAPGQGLEWMGWINPNAGGTNYAQKFQGRVTMTRDTSISTAYIELSRLRSDDTAVYYCAREDNFNGMDVWGQGTTVTVSS VL: DIQMTQSPSSLSASVGDRVTITCRASQGIRNDLGWYQQKPGKAPKRLIYAASSLQSGVPSRFSGSGSGTEFTLTISSLQPEDFATYYCLQLNAYPLTFGGGTKVEIKR | 0.25 nM | – | – | – |
